Experimental findings from publication PMC4737498, “An Anti-proteome Nanobody Library Approach Yields a Specific Immunoassay for Trypanosoma congolense Diagnosis Targeting Glycosomal Aldolase” (PLoS Neglected Tropical Diseases, 2016) are described below.

Common to all, as to conditions: one partner purified
Assay [1] concerns the target T1, recombinant T. congolense glycosomal aldolase (Trypanosoma congolense IL3000, UniProt G0UWE7).
T1 construct: His6-tag with a proximal tobacco etch virus cleavage site; Construct synthesised by GenScript; also called TcoALD; recombinant TcoALD; source: E. coli BL21(DE3), pET-21b(+), in crude lysate (18 h post-induction)
In words: ELISA; homologous sandwich (Nb474H-Nb474B), capture step: crude soluble proteins of E. coli expressing recombinant aldolase (10 μg/well) on coated Nb474H. (In general: ELISA stands for enzyme-linked immunosorbent assay.)

The target in assay [2] is T2, native T. congolense glycosomal fructose-1,6-bisphosphate aldolase (Trypanosoma congolense (TC13 soluble …, UniProt G0UWE7)).
T2 construct: glycosomal fructose-1,6-bisphosphate aldolase of Trypanosoma congolense, UniProtKB G0UWE7; band at about 40 kDa identified by mass spectrometry; Samples came from different strains (TC13, IL3000 and others); also called TcoALD; native TcoALD; source: endogenous, T. congolense soluble proteome (TC13), sera of T. congolense infected mice, T. congolense IL3000 secretome; in fixed T. congolense …
The assay is described as follows: ELISA; homologous sandwich Nb474-ELISA, capture step: Nb474H coated on Nunc plate (0.02 μg/ml in PBS, overnight 4°C), T. congolense soluble proteome, infected sera or secretome added 1 h at 22°C.

Assay [3] deals with T1, recombinant T. congolense glycosomal …. In words: ELISA; homologous sandwich (Nb474H-Nb474B), detection step: Nb474B on recombinant aldolase captured from crude E. coli lysate by coated Nb474H.
Assay [4] addresses T2, native T. congolense glycosomal …. The assay is described as follows: ELISA; homologous sandwich Nb474-ELISA, detection step: Nb474B (0.02 μg/ml, 1 h at 22°C) on antigen captured from T. congolense samples by coated Nb474H; strep-HRP and TMB.

B1: Nb474H (His6-tagged Nanobody 474) (VHH)
VHH: QVQLQESGGGLVQPGGSLRLSCAASETALTYYAIGWFRQAPGKEREGVSCISRINSGSGARTDYADSVKGRFTISRDDAKNTVTLQMNSLEPEDTARYYCALDTTDRYDSANGRYYCTISSDTYDYWGQGTQVTVSS
notes: from an alpaca immunised with T. congolense TC13 soluble proteome; also called capturing Nb; His6-tag Nb; source: E. coli WK6 (pHEN6c), periplasmic extract, purified (His-Select Nickel, size exclusion chromatography)
As for B1, the binding result in assay [1] and in assay [2] was “binds” each time.

B2: Nb474B (biotinylated Nanobody 474) (VHH)
VHH: QVQLQESGGGLVQPGGSLRLSCAASETALTYYAIGWFRQAPGKEREGVSCISRINSGSGARTDYADSVKGRFTISRDDAKNTVTLQMNSLEPEDTARYYCALDTTDRYDSANGRYYCTISSDTYDYWGQGTQVTVSS
notes: same Nb as m1; also called detecting Nb; detection Nb
For B2, the binding result in assay [3] and in assay [4] was “binds” throughout.
